Target: the molecule itself
Assay: SEC

B1: Wild-type IL-38 (residues 3-152), untagged after TEV cleavage of the N-terminal His10 tag (ligand)
chain: SLPMARYYIIKYADQKALYTRDGQLLVGDPVADNCCAEKICILPNRGLARTKVPIFLGIQGGSRCLACVETEEGPSLQLEDVNIEELYKGGEEATRFTFFQSSSGSAFRLEAAAWPGWFLCGPAEPQQPVQLTKESEPSARTKFYFEQSW
notes: Uncut protein was removed for the Peak A pool; also called IL-38 (WT); WT (D51A) IL-38
Question: Does B1 bind?
Answer: binds
